{"source": "paper PMC8106670", "key": {"[1]": {"target": "^HisBamA_(T809C) (E. coli) (UniProt P0A940)", "experiment": "cross-linking"}, "[2]": {"target": "^HisBamA_(N427C) (E. coli) (UniProt P0A940)", "experiment": "cross-linking"}}, "data": [{"substance": "^MBP−76EspP_(T984C) (from UniProt Q7BSW5 948-1300)", "values": [{"measurement": "percent disulfide-bonded", "setting": "[1]", "result": 50, "unit": "%"}, {"measurement": "percent disulfide-bonded", "setting": "[2]", "result": 40, "unit": "%"}]}]}
